Test results reported in US20100291682, “SYSTEM FOR TRANSPOSING HYPERACTIVE RECOMBINANT DERIVATIVES OF MOS-1 TRANSPOSON” (published 2010).

T1: MBP-Mos-1 transposase (MBP-Tnp) (Drosophila mauritiana, UniProt Q7JQ07 SEQ:1-345)
T1 sequence: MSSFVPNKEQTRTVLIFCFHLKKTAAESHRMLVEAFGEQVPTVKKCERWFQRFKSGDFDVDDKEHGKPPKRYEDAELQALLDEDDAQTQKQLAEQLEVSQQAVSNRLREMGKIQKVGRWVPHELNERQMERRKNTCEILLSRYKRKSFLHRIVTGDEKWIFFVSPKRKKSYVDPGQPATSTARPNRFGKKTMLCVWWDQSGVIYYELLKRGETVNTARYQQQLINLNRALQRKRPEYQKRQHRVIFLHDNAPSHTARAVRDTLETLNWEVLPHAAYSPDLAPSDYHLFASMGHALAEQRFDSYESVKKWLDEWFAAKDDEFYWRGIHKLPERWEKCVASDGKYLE

B1: ITRSelex SEQ 45 (dsDNA)
DNA 1: GTCAGTGATGTCACCAACGTATGGAATATCGTAT
DNA 2: ATACGATATTCCATACGTTGGTGACATCACTGAC
B2: ITRSelex SEQ 41 (dsDNA)
DNA 1: GAAGAGTTATAACTCAAGAAAACTGAAT
DNA 2: ATTCAGTTTTCTTGAGTTATAACTCTTC
B3: ITRSelex SEQ 44 (dsDNA)
DNA 1: ATAGTGTTTAAAGCTTACT
DNA 2: AGTAAGCTTTAAACACTAT
B4: ITRSelex SEQ 42 (dsDNA)
DNA 1: CGATTACAATTATGAAAACTTTCCT
DNA 2: AGGAAAGTTTTCATAATTGTAATCG
B5: ITRSelex SEQ 43 (dsDNA)
DNA 1: GGAGAAATGGTAGAATAGTTTA
DNA 2: TAAACTATTCTACCATTTCTCC
B6: ITRSelex SEQ 40 (dsDNA)
DNA 1: GCGGGTGTGAAAATATGAAATATTCACT
DNA 2: AGTGAATATTTCATATTTTCACACCCGC

target: T1, MBP-Mos-1 transposase (MBP-Tnp); assay: EMSA; details: complex stability versus ITR alone; MBP tag assumed

**Q.** For ITR3'/UTR3', which binding signal is on record?
**A.** 4 fold

**Q.** ITR3'/UTR5' was tested. Which binding signal did it give?
**A.** 4 fold

target: T1, MBP-Mos-1 transposase (MBP-Tnp); assay: EMSA; clone number to SEQ mapping not given; details: tags: N-terminal MBP (pMalC2x); chain copies: 2

**Q.** Does B1 bind?
**A.** binds

**Q.** Does B2 bind?
**A.** binds

**Q.** Does B3 bind?
**A.** binds

**Q.** Does B4 bind?
**A.** binds

**Q.** Does B5 bind?
**A.** binds

**Q.** Does B6 bind?
**A.** binds

target: T1, MBP-Mos-1 transposase (MBP-Tnp); assay: not given; details: active protein (Bmax) versus ITR3'; same Kd as ITR3'; inventors' prior research

**Q.** Mos-1 ITR5' was tested. Which binding signal did it give?
**A.** 0.1 fold
